Paper PMC2811759 (Biochemistry, 2010)

Molecular target: T1, Xeroderma Pigmentosum group C (XPC) (human, UniProt Q01831 1-940)
T1 sequence (looked up): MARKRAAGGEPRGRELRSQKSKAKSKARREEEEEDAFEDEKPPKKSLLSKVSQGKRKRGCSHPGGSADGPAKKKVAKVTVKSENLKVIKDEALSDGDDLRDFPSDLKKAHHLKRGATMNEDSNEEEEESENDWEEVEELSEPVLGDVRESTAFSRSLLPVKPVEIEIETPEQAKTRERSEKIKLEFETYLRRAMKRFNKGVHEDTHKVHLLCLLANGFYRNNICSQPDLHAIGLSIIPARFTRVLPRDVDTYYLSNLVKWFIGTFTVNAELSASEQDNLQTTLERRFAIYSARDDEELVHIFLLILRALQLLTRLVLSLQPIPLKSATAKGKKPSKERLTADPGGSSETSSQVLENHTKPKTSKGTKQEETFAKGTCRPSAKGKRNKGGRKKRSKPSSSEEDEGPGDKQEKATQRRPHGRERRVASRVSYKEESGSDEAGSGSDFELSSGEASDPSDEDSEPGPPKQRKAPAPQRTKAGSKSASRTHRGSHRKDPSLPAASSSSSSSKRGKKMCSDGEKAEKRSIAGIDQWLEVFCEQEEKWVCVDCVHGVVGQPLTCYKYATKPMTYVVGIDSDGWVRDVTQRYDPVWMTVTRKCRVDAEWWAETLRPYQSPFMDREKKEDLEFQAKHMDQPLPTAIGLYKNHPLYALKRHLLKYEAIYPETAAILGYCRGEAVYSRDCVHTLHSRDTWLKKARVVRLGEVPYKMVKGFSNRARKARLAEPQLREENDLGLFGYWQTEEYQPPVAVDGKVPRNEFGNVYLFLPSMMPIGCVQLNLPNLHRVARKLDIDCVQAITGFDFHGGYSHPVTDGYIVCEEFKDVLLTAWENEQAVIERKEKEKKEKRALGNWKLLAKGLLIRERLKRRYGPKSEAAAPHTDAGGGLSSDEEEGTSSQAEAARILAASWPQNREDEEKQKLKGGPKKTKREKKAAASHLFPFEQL
Assay: co-IP

binding result: binds
B1: Rad23B (natural protein, human, UniProt P54727 1-409, looked up)
chain: MQVTLKTLQQQTFKIDIDPEETVKALKEKIESEKGKDAFPVAGQKLIYAGKILNDDTALKEYKIDEKNFVVVMVTKPKAVSTPAPATTQQSAPASTTAVTSSTTTTVAQAPTPVPALAPTSTPASITPASATASSEPAPASAAKQEKPAEKPAETPVATSPTATDSTSGDSSRSNLFEDATSALVTGQSYENMVTEIMSMGYEREQVIAALRASFNNPDRAVEYLLMGIPGDRESQAVVDPPQAASTGAPQSSAVAAAAATTTATTTTTSSGGHPLEFLRNQPQFQQMRQIIQQNPSLLPALLQQIGRENPQLLQQISQHQEHFIQMLNEPVQEAGGQGGGGGGGSGGIAEAGSGHMNYIQVTPQEKEAIERLKALGFPEGLVIQAYFACEKNENLAANFLLQQNFDED
